One experiment deals with T1, Ssa2p (S. cerevisiae, UniProt P10592 1-639).
T1 construct: Ssa2p, major cytosolic Hsp70 of S. cerevisiae, full length (residues 1-639 by the domain constructs); Expressed from a pCold2 vector with a C-terminal His6 tag; also called Ssa2p-His6; Ssa proteins; source: E. coli BL21(DE3) co-expressing trigger factor, purified (Ni-NTA agarose)
Nature of the experiment: pull-down; 200 pmol GST or GST-nucleoporin fusion and 40 pmol Ssa1p or Ssa2p incubated with Glutathione Sepharose in Buffer 88 (20 mM HEPES-KOH pH 6.8, 2 mM Mg(OAc)2, 150 mM KOAc) with 0.10% wt/vol Tween-20, 4°C, 2 hr; eluted with 10 mM reduced glutathione; Ssa proteins detected by Western blotting with anti-Ssa protein antibodies. As to conditions: both partners purified. (In general: A western blot detects proteins with antibodies after separation by electrophoresis.)

The next experiment deals with T2, Ssa1p (S. cerevisiae, UniProt P10591 1-642).
T2 construct: Ssa1p, cytosolic Hsp70 of S. cerevisiae, full length (residues 1-642 by the domain constructs); Expressed from a pCold2 vector with a C-terminal His6 tag; also called Ssa1p-His6; Ssa proteins; source: E. coli BL21(DE3) co-expressing trigger factor, purified (Ni-NTA agarose)
T2 sequence (P10591 whole entry, the tested form may be a part): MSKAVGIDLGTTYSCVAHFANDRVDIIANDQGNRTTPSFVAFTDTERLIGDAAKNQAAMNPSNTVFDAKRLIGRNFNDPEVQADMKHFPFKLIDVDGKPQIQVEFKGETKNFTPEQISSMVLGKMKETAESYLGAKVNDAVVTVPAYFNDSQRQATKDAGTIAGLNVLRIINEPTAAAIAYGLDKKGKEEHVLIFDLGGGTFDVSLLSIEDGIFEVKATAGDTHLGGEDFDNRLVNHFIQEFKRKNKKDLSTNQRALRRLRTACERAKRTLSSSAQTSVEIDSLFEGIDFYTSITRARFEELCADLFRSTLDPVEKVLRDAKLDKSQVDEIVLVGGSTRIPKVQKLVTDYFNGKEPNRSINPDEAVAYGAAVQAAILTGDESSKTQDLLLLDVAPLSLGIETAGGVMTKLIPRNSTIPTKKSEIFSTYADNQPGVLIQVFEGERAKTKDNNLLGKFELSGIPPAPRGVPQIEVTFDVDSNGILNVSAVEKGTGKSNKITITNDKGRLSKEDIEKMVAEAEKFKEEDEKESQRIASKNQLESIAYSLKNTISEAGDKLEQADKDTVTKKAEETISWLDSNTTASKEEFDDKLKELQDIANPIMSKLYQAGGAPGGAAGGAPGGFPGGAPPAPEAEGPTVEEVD
Described as above. Conditions: both partners purified.

T1 sequence (P10592 whole entry, the tested form may be a part): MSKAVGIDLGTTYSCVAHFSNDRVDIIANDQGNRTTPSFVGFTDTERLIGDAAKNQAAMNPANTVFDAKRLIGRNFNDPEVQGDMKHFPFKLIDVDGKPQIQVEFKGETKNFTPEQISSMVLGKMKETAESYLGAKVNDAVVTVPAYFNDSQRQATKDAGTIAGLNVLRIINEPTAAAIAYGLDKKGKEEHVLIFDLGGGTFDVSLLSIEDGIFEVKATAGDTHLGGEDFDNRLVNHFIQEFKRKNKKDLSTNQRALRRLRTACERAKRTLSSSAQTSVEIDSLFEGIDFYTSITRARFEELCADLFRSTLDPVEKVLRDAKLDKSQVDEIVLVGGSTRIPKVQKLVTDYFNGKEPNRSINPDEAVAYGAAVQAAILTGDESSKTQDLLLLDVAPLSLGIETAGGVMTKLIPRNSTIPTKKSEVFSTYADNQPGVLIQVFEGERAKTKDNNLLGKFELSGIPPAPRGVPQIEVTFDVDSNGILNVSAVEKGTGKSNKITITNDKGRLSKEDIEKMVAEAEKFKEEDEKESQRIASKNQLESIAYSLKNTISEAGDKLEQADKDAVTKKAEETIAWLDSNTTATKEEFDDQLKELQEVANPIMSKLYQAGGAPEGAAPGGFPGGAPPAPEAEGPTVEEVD

B1: GST-Nup116(165–715)p (domain or fragment, S. cerevisiae, UniProt Q02630 165-715, looked up)
chain: RKFGTSQNGTGTTFNNPQGTTNTGFGIMGNNNSTTSATTGGLFGQKPATGMFGTGTGSGGGFGSGATNSTGLFGSSTNLSGNSAFGANKPATSGGLFGNTTNNPTNGTNNTGLFGQQNSNTNGGLFGQQQNSFGANNVSNGGAFGQVNRGAFPQQQTQQGSGGIFGQSNANANGGAFGQQQGTGALFGAKPASGGLFGQSAGSKAFGMNTNPTGTTGGLFGQTNQQQSGGGLFGQQQNSNAGGLFGQNNQSQNQSGLFGQQNSSNAFGQPQQQGGLFGSKPAGGLFGQQQGASTFASGNAQNNSIFGQNNQQQQSTGGLFGQQNNQSQSQPGGLFGQTNQNNNQPFGQNGLQQPQQNNSLFGAKPTGFGNTSLFSNSTTNQSNGISGNNLQQQSGGLFQNKQQPASGGLFGSKPSNTVGGGLFGNNQVANQNNPASTSGGLFGSKPATGSLFGGTNSTAPNASSGGIFGSNNASNTAATTNSTGLFGNKPVGAGASTSAGGLFGNNNNSSLNNSNGSTGLFGSNNTSQSTNAGGLFQNNTSTNTSGGGLFS
notes: Cloned into pGEX-4T-2; also called Nup116p; source: DH5α, purified (Glutathione Sepharose, NAP-10 desalting)
For the molecule B1, the binding result with Ssa2p and in the experiment with Ssa1p was “binds” in each case.

The values above are taken from PMC4432389, “Cytosolic Hsp70 and co-chaperones constitute a novel system for tRNA import into the nucleus” (eLife, 2015).
